Measurements published in paper PMC6727763 (Molecular Biology of the Cell, 2019).

Molecular target: T1, αE-catenin construct containing the M123 domain (UniProt P26231 1-906)
T1 sequence (looked up): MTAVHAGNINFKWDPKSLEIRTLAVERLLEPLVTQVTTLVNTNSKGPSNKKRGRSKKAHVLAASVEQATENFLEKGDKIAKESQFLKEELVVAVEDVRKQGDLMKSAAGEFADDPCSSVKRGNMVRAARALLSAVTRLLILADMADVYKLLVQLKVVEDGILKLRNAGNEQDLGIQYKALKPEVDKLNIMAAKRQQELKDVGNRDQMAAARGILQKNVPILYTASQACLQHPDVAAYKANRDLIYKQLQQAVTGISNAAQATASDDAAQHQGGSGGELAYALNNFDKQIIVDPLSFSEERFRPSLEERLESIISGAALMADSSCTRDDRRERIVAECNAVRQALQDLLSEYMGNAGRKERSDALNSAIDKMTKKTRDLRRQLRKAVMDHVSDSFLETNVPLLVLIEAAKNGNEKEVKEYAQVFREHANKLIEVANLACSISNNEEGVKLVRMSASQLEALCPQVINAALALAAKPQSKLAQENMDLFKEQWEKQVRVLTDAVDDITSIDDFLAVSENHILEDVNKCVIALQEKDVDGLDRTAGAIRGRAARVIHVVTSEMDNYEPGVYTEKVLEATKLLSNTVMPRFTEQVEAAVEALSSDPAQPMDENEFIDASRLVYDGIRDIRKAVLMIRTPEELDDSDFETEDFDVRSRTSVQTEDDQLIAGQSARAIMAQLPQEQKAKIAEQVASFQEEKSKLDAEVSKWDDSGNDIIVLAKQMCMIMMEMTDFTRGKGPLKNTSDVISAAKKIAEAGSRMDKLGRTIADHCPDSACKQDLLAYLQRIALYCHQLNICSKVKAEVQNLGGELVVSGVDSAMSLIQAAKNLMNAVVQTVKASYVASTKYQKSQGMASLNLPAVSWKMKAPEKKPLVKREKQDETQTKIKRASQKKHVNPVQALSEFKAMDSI
Test: magnetic tweezers force-jumping assay

B1: vinculin head domain 1 (VD1) (domain or fragment)
chain: MPVFHTRTIESILEPVAQQISHLVIMHEEGEVDGKAIPDLTAPVSAVQAAVSNLVRVGKETVQTTEDQILKRDMPPAFIKVENACTKLVRAAQMLQADPYSVPARDYLIDGSRGILSGTSDLLLTFDEAEVRKIIRVCKGILEYLTVAEVVETMEDLVTYTKNLGPGMTKMAKMIDERQQELTHQEHRVMLVNSMNTVKELLPVLISAMKIFVTTKNTKSQGIEEALKNRNFTVEKMSAEINEIIRVLQLTSWDEDAW
  Kd: 2 nM
  koff: 0.008 s⁻¹
  kon: 4.8e+06 M⁻¹ s⁻¹
